Data taken from patent KR20150078472A (dated 2015).

T1: Asparaginyl-tRNA synthetase (NRS) (UniProt O43776 1-548, limits assumed)
T1 construct: Recombinant antigen, purity above 90%, coupled to a Luminex bead; also called 아스파라기닐딜-tRNA 합성효소
T1 sequence (looked up): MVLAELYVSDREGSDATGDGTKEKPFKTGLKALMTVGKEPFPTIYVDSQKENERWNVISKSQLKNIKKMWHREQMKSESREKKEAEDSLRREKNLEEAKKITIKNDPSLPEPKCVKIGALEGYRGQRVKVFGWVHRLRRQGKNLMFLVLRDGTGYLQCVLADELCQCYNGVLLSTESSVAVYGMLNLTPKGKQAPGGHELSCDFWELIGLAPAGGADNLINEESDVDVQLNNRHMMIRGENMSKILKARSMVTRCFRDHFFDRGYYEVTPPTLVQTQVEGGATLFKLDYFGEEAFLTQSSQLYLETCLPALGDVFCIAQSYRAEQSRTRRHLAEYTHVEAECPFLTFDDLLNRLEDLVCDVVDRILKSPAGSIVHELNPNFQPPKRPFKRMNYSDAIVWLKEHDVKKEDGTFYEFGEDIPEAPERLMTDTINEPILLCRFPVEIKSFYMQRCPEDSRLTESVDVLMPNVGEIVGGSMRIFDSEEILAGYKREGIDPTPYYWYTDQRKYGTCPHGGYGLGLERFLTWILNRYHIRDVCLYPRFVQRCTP

T2: Histidyl-tRNA synthetase (HRS) (UniProt P12081 1-509, limits assumed)
T2 construct: Recombinant antigen, purity above 90%, coupled to a Luminex bead; also called 히스티딜-tRNA 합성효소
T2 sequence (looked up): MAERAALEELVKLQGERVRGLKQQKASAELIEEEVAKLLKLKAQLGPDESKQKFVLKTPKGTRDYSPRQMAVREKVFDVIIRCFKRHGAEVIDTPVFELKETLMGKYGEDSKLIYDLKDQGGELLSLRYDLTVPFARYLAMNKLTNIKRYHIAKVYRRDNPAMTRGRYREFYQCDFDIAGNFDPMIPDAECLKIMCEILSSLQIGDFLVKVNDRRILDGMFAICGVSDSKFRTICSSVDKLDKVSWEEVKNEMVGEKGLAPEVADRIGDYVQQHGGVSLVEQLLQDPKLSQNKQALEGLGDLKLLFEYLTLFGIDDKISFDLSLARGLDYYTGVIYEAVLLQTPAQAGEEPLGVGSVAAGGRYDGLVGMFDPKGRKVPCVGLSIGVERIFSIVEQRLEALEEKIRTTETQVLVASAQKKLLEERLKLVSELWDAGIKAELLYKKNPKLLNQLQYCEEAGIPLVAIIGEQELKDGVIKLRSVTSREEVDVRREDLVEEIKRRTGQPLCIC

T3: Tyrosyl-tRNA synthetase (YRS) (UniProt P54577 1-528, limits assumed)
T3 construct: Recombinant antigen, purity above 90%, coupled to a Luminex bead; also called 타이로실-tRNA 합성효소
T3 sequence (looked up): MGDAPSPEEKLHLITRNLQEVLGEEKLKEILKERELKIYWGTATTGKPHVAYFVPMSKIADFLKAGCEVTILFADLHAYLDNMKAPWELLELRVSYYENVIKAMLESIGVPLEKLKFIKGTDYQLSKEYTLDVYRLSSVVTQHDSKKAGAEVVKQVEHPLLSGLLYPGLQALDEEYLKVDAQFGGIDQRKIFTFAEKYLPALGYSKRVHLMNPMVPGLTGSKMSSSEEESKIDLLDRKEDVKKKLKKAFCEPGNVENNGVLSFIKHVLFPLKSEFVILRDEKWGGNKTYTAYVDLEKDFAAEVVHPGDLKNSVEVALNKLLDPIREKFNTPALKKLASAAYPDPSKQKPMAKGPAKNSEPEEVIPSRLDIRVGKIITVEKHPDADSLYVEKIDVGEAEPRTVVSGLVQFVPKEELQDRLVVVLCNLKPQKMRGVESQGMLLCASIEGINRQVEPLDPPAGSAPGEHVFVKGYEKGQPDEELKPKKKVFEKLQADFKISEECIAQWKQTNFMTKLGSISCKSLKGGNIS

T4: Glycyl-tRNA synthetase (GRS) (UniProt P41250 55-739, limits assumed)
T4 construct: Recombinant antigen, purity above 90%, coupled to a Luminex bead; also called 글리실-tRNA 합성효소
T4 sequence (looked up): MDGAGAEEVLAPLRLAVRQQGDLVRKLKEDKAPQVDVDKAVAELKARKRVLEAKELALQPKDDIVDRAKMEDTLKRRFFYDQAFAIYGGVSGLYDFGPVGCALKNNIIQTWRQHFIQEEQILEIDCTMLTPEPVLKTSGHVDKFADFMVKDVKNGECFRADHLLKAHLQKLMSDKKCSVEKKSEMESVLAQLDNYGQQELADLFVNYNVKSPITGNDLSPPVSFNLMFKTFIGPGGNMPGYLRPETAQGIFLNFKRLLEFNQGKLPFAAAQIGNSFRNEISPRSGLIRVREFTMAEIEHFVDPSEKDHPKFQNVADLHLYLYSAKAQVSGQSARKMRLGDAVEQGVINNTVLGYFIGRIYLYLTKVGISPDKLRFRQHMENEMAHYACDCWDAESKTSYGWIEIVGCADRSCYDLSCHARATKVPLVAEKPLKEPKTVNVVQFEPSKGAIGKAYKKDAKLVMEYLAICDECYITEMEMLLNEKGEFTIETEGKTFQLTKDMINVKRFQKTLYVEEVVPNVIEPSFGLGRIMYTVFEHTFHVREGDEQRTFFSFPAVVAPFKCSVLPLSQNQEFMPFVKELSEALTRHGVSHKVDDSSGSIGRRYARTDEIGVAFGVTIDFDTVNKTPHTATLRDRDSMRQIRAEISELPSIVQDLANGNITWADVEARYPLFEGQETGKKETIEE

T5: Tryptophanyl-tRNA synthetase (WRS) (UniProt P23381 1-471, limits assumed)
T5 construct: Recombinant antigen, purity above 90%, coupled to a Luminex bead; also called 트립토파닐-tRNA 합성효소
T5 sequence (looked up): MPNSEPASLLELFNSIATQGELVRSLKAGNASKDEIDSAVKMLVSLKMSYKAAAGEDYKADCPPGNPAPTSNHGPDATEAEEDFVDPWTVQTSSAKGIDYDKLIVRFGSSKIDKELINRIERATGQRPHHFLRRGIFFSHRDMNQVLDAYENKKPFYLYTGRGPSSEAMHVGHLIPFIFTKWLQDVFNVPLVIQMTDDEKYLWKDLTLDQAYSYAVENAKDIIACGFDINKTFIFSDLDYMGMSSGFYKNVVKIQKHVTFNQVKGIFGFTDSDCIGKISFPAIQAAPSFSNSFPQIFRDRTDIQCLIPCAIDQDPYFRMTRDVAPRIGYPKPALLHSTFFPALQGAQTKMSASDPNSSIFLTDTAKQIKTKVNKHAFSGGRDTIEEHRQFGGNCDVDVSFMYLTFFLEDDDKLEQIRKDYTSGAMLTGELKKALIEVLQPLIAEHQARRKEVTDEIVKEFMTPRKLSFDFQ

T6: recombinant AIMP1/p43 (ARS-interacting multifunctional protein 1) (human, UniProt Q12904 1-312, limits assumed)
T6 construct: Purified recombinant antigen used in SPR, on Luminex beads and as the ELISA standard; It calls the target human AIMP1/p43 in the summary and claims; also called AIMP1/p43 항원; 재조합 AIMP1/p43 표준물질
T6 sequence (looked up): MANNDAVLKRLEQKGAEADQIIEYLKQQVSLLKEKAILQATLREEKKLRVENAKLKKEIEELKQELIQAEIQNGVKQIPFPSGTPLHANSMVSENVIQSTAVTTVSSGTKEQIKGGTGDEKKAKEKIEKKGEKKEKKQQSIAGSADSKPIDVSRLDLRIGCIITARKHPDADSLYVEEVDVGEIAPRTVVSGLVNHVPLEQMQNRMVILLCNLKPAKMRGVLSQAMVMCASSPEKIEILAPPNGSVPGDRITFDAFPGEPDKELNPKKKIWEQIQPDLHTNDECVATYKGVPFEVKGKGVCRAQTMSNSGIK

T7: AIMP1/p43 natively expressed in human cells (HeLa cell lysate) (human, UniProt Q12904 2-312, limits assumed)
T7 construct: Endogenous protein, denatured on a western blot; also called human 세포에서 원래 발현된 AIMP1/p43
T7 sequence (looked up): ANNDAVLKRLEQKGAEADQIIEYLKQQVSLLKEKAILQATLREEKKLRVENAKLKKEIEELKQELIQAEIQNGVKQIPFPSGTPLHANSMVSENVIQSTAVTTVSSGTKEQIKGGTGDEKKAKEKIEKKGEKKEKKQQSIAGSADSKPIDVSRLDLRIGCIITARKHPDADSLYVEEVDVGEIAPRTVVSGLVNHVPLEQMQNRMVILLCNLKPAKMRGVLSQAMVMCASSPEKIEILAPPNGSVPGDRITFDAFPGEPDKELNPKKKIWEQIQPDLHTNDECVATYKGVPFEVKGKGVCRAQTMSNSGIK


Tests used:
[1] = target: T8, Lysyl-tRNA synthetase (KRS) (UniProt Q15046 1-597, limits assumed); assay: Luminex multiplex bead assay, antigen-coupled beads, anti-HA-biotin and SA-PE detection
T8 construct: Recombinant antigen, purity above 90%, coupled to a Luminex bead; also called 리실-tRNA 합성효소
T8 sequence (Q15046 whole entry): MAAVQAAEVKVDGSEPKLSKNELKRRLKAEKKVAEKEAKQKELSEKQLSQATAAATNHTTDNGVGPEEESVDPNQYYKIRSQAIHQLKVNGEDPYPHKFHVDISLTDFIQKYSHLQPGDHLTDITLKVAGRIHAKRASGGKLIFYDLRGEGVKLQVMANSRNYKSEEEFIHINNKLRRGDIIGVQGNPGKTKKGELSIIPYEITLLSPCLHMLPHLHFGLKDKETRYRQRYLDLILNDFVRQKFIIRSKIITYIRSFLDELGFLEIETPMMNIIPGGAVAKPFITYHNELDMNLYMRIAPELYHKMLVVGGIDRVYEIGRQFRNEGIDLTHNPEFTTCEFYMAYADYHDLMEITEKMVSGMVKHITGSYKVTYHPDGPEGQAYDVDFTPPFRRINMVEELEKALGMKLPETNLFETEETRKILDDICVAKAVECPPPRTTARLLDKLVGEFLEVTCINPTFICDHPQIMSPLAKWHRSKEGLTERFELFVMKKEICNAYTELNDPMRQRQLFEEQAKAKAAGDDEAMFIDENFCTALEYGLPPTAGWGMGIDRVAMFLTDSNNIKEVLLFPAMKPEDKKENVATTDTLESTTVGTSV

[2] = target: T1, Asparaginyl-tRNA synthetase (NRS); assay: as above
[3] = target: T2, Histidyl-tRNA synthetase (HRS); assay: as above
[4] = target: T9, Seryl-tRNA synthetase (SRS) (UniProt P49591 1-514, limits assumed); assay: as above
T9 construct: Recombinant antigen, purity above 90%, coupled to a Luminex bead; also called 세릴-tRNA 합성효소
T9 sequence (P49591 whole entry): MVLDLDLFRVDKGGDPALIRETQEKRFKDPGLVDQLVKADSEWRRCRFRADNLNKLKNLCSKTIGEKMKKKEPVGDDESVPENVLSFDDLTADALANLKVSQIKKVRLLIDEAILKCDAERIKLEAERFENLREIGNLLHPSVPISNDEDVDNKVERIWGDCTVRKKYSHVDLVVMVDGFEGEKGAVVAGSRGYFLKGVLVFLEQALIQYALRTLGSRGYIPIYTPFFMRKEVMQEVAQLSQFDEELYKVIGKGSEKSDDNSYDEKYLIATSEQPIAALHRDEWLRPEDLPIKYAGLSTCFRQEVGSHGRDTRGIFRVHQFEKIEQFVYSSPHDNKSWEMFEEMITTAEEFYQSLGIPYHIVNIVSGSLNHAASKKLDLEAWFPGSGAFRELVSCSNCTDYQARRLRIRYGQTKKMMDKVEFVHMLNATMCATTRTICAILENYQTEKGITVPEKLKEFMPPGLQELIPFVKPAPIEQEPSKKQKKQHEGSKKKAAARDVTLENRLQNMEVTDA

[5] = target: T3, Tyrosyl-tRNA synthetase (YRS); assay: as above
[6] = target: T4, Glycyl-tRNA synthetase (GRS); assay: as above
[7] = target: T5, Tryptophanyl-tRNA synthetase (WRS); assay: as above
[8] = target: T6, recombinant AIMP1/p43 (ARS-interacting …); assay: SPR (ProteOn XPR36), AIMP1/p43 amine-coupled on GLC chip, scFv 200-25 nM as analyte, 25°C
[9] = target: T7, AIMP1/p43 natively expressed in human …; assay: western blot on HeLa cell lysate, periplasmic scFv, anti-HA-HRP detection

| binding result [1] | binding result [2] | binding result [3] | binding result [4] | binding result [5] | binding result [6] | binding result [7] | binding result [8] | binding result [9] | Binder |
| --- | --- | --- | --- | --- | --- | --- | --- | --- | --- |
| no binding | no binding | no binding | no binding | no binding | no binding | no binding | binds | binds | anti-AIMP1/p43 scFv Biocon-AM1-2 (scFv, Expressed from pComb3X in the E. coli periplasm; also called antibody ii)) scFv: EVQLLESGGGLVQPGGSLRLSCAASGFTFSNYDMSWVRQAPGKGLEWVSSIYPNGSSKYYADSVKGRFTISRDNSKNTLYLQMNSLRAEDTAVYYCARDVLLCISMRCYYADGMDVWGQGTLVTVSSGGGGSGGGGSGGGGSQSVLTQPPSASGTPGQRVTISCSGSSSNIGNNAVNWYQQLPGTAPKLLIYANSHRPSGVPDRFSGSQSGTSASLAISGLRSEDEADYYCGSWDSSLNGYVFGGGTKLTVL |
| no binding | no binding | no binding | no binding | no binding | no binding | no binding | binds | binds | anti-AIMP1/p43 scFv Biocon-AM1-1 (scFv, Expressed from pComb3X in the E. coli periplasm; also called antibody i)) scFv: EVQLLEFLGEGLVQPGGSLRLSCAASGFTFSSYDMSWVRQAPGKGLEWVSVISSDGGSTYYADSVRGRFTISRDNSKNTLYLQMNSLRAEDTAVYYCAKDVMKTGTLVFDYWGQGTLVTVSSGGGGSGGGGSGGGGSQSVLTQPPSASGTPGQRVTISCSGSSSNIGSNDVSWYQQLPGTAPKLLIYADSKRPSGVPDRFSGSKSGTSASLAISGLRSEDEADYYCGSWDDSLSGYVFGGGTKLTVL |
